Measurements as given in publication PMC5715081, “Purification and functional comparison of nine human Aquaporins produced in Saccharomyces cerevisiae for the purpose of biophysical characterization” (Scientific Reports, 2017).

B1: human AQP2-TEV-GFP-His10 fusion (natural protein, UniProt P41181 1-271, looked up)
chain: MWELRSIAFSRAVFAEFLATLLFVFFGLGSALNWPQALPSVLQIAMAFGLGIGTLVQALGHISGAHINPAVTVACLVGCHVSVLRAAFYVAAQLLGAVAGAALLHEITPADIRGDLAVNALSNSTTAGQAVTVELFLTLQLVLCIFASTDERRGENPGTPALSIGFSVALGHLLGIHYTGCSMNPARSLAPAVVTGKFDDHWVFWIGPLVGAILGSLLYNYVLFPPAKSLSERLAVLKGLEPDTDWEEREVRRRQSVELHSPQSLPRGTKA
notes: Aquaporin 2, human, cDNA codon optimized for S. cerevisiae; primers run from the start codon to the last codon; also called AQP2-GFP; APQ2-GFP; not shown: TEV cleavage site, C-terminal, kept; yeGFP, C-terminal, kept; His10, C-terminal, kept
B2: human AQP9-TEV-GFP-His10 fusion (natural protein, UniProt O43315 1-295, looked up)
chain: MQPEGAEKGKSFKQRLVLKSSLAKETLSEFLGTFILIVLGCGCVAQAILSRGRFGGVITINVGFSMAVAMAIYVAGGVSGGHINPAVSLAMCLFGRMKWFKLPFYVGAQFLGAFVGAATVFGIYYDGLMSFAGGKLLIVGENATAHIFATYPAPYLSLANAFADQVVATMILLIIVFAIFDSRNLGAPRGLEPIAIGLLIIVIASSLGLNSGCAMNPARDLSPRLFTALAGWGFEVFRAGNNFWWIPVVGPLVGAVIGGLIYVLVIEIHHPEPDSVFKTEQSEDKPEKYELSVIM
notes: Aquaporin 9, human, cDNA codon optimized for S. cerevisiae; primers run from the start codon to the last codon; also called AQP9-GFP; Aquaporin 9; not shown: TEV cleavage site, C-terminal, kept; yeGFP, C-terminal, kept; His10, C-terminal, kept
B3: human AQP6-TEV-GFP-His10 fusion (natural protein, UniProt Q13520 1-282, looked up)
chain: MDAVEPGGRGWASMLACRLWKAISRALFAEFLATGLYVFFGVGSVMRWPTALPSVLQIAITFNLVTAMAVQVTWKASGAHANPAVTLAFLVGSHISLPRAVAYVAAQLVGATVGAALLYGVMPGDIRETLGINVVRNSVSTGQAVAVELLLTLQLVLCVFASTDSRQTSGSPATMIGISVALGHLIGIHFTGCSMNPARSFGPAIIIGKFTVHWVFWVGPLMGALLASLIYNFVLFPDTKTLAQRLAILTGTVEVGTGAGAGAEPLKKESQPGSGAVEMESV
notes: Aquaporin 6, human, cDNA codon optimized for S. cerevisiae; primers run from the start codon to the last codon; also called AQP6-GFP; Aquaporin 6; not shown: TEV cleavage site, C-terminal, kept; yeGFP, C-terminal, kept; His10, C-terminal, kept

Biological target: the molecule itself
Experiment: SDS-PAGE (SDS-resistant oligomers); peak fractions of Ni-affinity purified, detergent solubilised AQP-TEV-GFP-His10 fusions separated by SDS-PAGE; in-gel fluorescence and Coomassie staining

Protein	binding result
B1	binds
B2	binds
B3	binds
